Here are results for 83 variants from the RNAGym collection of RNA variant scans (doi:10.1093/molbev/msab373).

B1: Azoarcus group I ribozyme (parent)
chain: GUGCCUUGCGCCGGGAAACCACGCAAGGGAUGGUGUCAAAUUCGGCGAAACCUAAGCGCCCGCCCGGGCGUAUGGCAACGCCGAGCCAAGCUUCGGCGCCUGCGCCGAUGAAGGUGUAGAGACUAGACGGCACCCACCUAAGGCAAACGCUAUGGUGAAGGCAUAGUCCAGGGAGUGGCGAAAGUCACACAAACCGG

This series covers variants of B1. As to the kind of experiment: reverse-splicing fitness (ratio to wild type); higher = more active; in vitro selection; Mg2+ level not given. An outline of the steps: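 An in vitro group I ribozyme library with randomized positions was T7-transcribed and gel-purified. In triplicate, 10 pmol RNA in EPPS pH 7.5 was reacted with 50 pmoles of a 30-nt RNA substrate for 1 h at 37 °C across several added MgCl2 levels (1–48 mM), then stopped with EDTA. Products were reverse transcribed from a substrate-complementary primer, PCR-amplified and sequenced (HiSeq 4000). Fitness is a variant's read proportion after selection over that before, normalised to wild type.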
As to A111U A120U A145U C150G C169G U176G, the reverse-splicing fitness was found to be 0.00207. Then A111U A120U A145U C150G C169G U176A, with 0.00294; and A111U A120U A145U C150G C169G U176C, with 0.00228. Then A111U A145C C150G C169A U176A, with 0.0076.

On to A111U A145C C150G C169A U176C, for which the reverse-splicing fitness amounted to 0.00643. Then A111U A145C C150G C169A U176G, with 0.00612. Next, A111U A120U A145G C150G C169G U176C: 0.00495; A111U A120U A145G C150G C169G U176A: 0.00683; A111U A120U A145G C150G C169G U176G: 0.00343. Turning to A111U A120U A145G C150U C169A U176A, the reverse-splicing fitness stood at 0.00497. As to A111U A120U A145G C150U C169A U176G, the reverse-splicing fitness is 0.00237. Next, A111U A120U A145G C150U C169A U176C: 0.00389; A111U A120U A145G C150A U176G: 0.00868.

As for A111U A120U A145G C150A U176A, the reverse-splicing fitness turned out to be 0.0364. Then A111U A120U A145G C150A U176C, with 0.0415; and A111U A120U A145C C169U U176A, with 0.00945; and A111U A120U A145C C169U U176G, with 0.00245. Regarding A111U A120U A145C C169U U176C, the reverse-splicing fitness amounted to 0.00989.

Take A111U A120U C150A C169A U176A: the reverse-splicing fitness came to 0.00475. Then A111U A120U C150A C169A U176G, with 0.00251; and A111U A120U C150A C169A U176C, with 0.00348; and A111U A120G C150U, with 0.0899. Consider A111U A145C C150A C169G U176C, for which the reverse-splicing fitness was found to be 0.0127.

As for A111U A145C C150A C169G U176A, the reverse-splicing fitness was 0.0227. Regarding A111U A145C C150A C169G U176G, the reverse-splicing fitness is 0.00622. For A111U A120U C169A U176G, the reverse-splicing fitness worked out at 0.00214. Next, A111U A120U C169A U176A: 0.00255; A111U A120U C169A U176C: 0.00373. Then A111U A120U A145G C150A C169G U176A, with 0.00807; and A111U A120U A145G C150A C169G U176G, with 0.00267; and A111U A120U A145G C150A C169G U176C, with 0.00547. Then A111U A120U A145C C150G C169G, with 0.00697.

As for A111U A120U A145C C150G C169U, the reverse-splicing fitness amounted to 0.00895.

Turning to A111U A120U A145C C150G C169A, the reverse-splicing fitness was determined as 0.0033. Next, A111U A145C C150A C169U U176A: 0.0157. Then A111U A145C C150A C169U U176G, with 0.00676; and A111U A145C C150A C169U U176C, with 0.0105. Then A111U A120U A145U C169G U176G, with 0.00201; and A111U A120U A145U C169G U176C, with 0.00666; and A111U A120U A145U C169G U176A, with 0.00482. On to A111U A120U C150A U176G, for which the reverse-splicing fitness is 0.0103.

Turning to A111U A120U C150A U176A, the reverse-splicing fitness came out at 0.0294. Regarding A111U A120U C150A U176C, the reverse-splicing fitness amounted to 0.0318. Take A111U A120U A145C C150U C169U U176G: the reverse-splicing fitness came out at 0.0019. Next, A111U A120U A145C C150U C169U U176C: 0.00285; A111U A120U A145C C150U C169U U176A: 0.0036. Then A111U A120U A145U C150G C169A U176A, with 0.00319; and A111U A120U A145U C150G C169A U176G, with 0.00255; and A111U A120U A145U C150G C169A U176C, with 0.00274. With A111U A120U C150U U176C, the reverse-splicing fitness amounted to 0.171. Then A111U A120U C150U U176G, with 0.027; and A111U A120U C150U U176A, with 0.125; and A111U A120G C150U U176C, with 0.0413. Next, A111U A120G C150U U176G: 0.00616; A111U A120G C150U U176A: 0.0266.

As to A111U A120G C169G, the reverse-splicing fitness amounted to 0.218.

In the case of A111U A120G C169A, the reverse-splicing fitness was 0.116. Next, A111U A120G C169U: 0.155.

In the case of A111U A120U C169G U176A, the reverse-splicing fitness was determined as 0.00625. Next, A111U A120U C169G U176G: 0.00197; A111U A120U C169G U176C: 0.00937; A111U A120U A145U C150A C169U U176G: 0.00245.

For A111U A120U A145U C150A C169U U176A, the reverse-splicing fitness was 0.00294. Then A111U A120U A145U C150A C169U U176C, with 0.00324; and A111U A120U A145C C150A U176A, with 0.012. Next, A111U A120U A145C C150A U176G: 0.00552. For A111U A120U A145C C150A U176C, the reverse-splicing fitness amounted to 0.00836. Then A111U A120U A145G C150A C169U U176A, with 0.00532; and A111U A120U A145G C150A C169U U176C, with 0.00537. With A111U A120U A145G C150A C169U U176G, the reverse-splicing fitness was 0.00312. Turning to A111U A120U A145C C150A C169G, the reverse-splicing fitness worked out at 0.00394. In the case of A111U A120U A145C C150A C169U, the reverse-splicing fitness worked out at 0.00469.

On to A111U A120U A145C C150A C169A, for which the reverse-splicing fitness was found to be 0.00256. Then A111U A120U A145G, with 0.593; and A111U A120U A145U, with 0.607; and A111U A120U A145C, with 0.518. Then A111U A120U U176A, with 0.239; and A111U A120U U176G, with 0.0683; and A111U A120U U176C, with 0.296. Then A111U A120U A145G C150A C169A, with 0.00554; and A111U A120U A145G C150A C169G, with 0.00946. For the variant A111U A120U A145G C150A C169U, the reverse-splicing fitness was 0.012. Then A111U A120U A145U U176G, with 0.0645.
